Results on three molecules are retold here after publication PMC6087011, “The mechanism by which a distinguishing arabinofuranosidase can cope with internal di-substitutions in arabinoxylans” (Biotechnology for Biofuels, 2018).

Series [1] addresses XacAbf51, GH51 α-L-arabinofuranosidase from Xanthomonas axonopodis pv. citri (X. axonopodis pv. citri str. 306). As to the kind of experiment: AUC.
The target is the same in series [2]. Kind of series: SAXS.
For series [3] the target is unchanged. As to the kind of experiment: […]; 20 °C; […], pH 7.5; […].
For series [4], the system named is O=[N+]([O-])c1ccc(O[C@@H]2O[C@@H](CO)[C@H](O)[C@H]2O)cc1. Kind of series: purified protein. Conditions: pH 5.5 McIlvaine buffer, 50 °C.
Substrate in series [5]: O=[N+]([O-])c1ccc(O[C@@H]2O[C@@H](CO)[C@H](O)[C@H]2O)cc1
Kind of series: colorimetric p-nitrophenolate release, A400. Conditions: pH 5.5 McIlvaine buffer, 50 °C. Type of series: biochemical, Thermobacillus xylanilyticus. An excerpt:
colorimetric p-nitrophenolate release, A400 on TxAbfD3

In the case of “XacAbf51, GH51 α-L-arabinofuranosidase from Xanthomonas axonopodis pv. citri (enzyme)”, the stoichiometry N in series [1], in series [2] and in series [3] was 3 each time.

“XacAbf51 (Xanthomonas citri subsp. citri 306)”: in series [4], the Km – broadly, the concentration of substrate that gives half-maximal velocity – is 190 ± 10 µM; the kcat (usually the maximal rate divided by the concentration of active sites) was found to be 56.4 ± 0.8 s⁻¹; the kcat/Km – broadly, the turnover number divided by the Michaelis constant – was 300000 M⁻¹ s⁻¹.

B1: TxAbfD3 (Thermobacillus xylanilyticus) (protein)
chain: MNVASRVVVNADRVKGTINRNIYGHFSEHLGRCIYEGLWVGEDSPIPNTNGIRNDVLEALKQMKIPVLRWPGGCFADEYHWKDGVGPREKRKRMVNTHWGGVIENNHFGTHEFMMLCELLGCEPYISGNVGSGTVQEMSEWVEYITFDGESPMANWRRENGREKPWRIKYWGVGNENWGCGGNMRAEYYADLYRQFQTYLRNYGDNKLHKIACGANTADYHWTEVLMKQAAPFMHGLSLHYYTVPGPWEKKGPATGFTTDEWWVTLKKALFMDRLVTKHSAIMDVYDPDKRIDLIVDEWGTWYDVEPGTNPGFLYQQNSIRDALVAGATLHIFHRHCDRVRMANIAQLVNVLQSVILTEGERMLLTPTYHVFNMFKVHQDAELLDTWESVERTGPEGELPKVSVSASRAADGKIHISLCNLDFETGASVDIELRGLNGGVSATGTTLTSGRIDGHNTFDEPERVKPAPFRDFKLEGGHLNASLPPMSVTVLELTAG
As to B1, in series [5], the Km stood at 520 ± 60 µM, the kcat was determined as 154 ± 4.2 s⁻¹ and the kcat/Km was found to be 300000 M⁻¹ s⁻¹.
